# Experimental data published in patent EP4663654A1 (Hangzhou Sciwind Biosciences Co., Ltd., dated 2025).
# Starred links: 1 amine or outer side, 2 acyl side, 3 side chain; linkers in the order of their positions; H or OH if unused. Non-standard residues stand in square brackets, D forms with d. *: point of attachment. C20 diacid = O=C(O)CCCCCCCCCCCCCCCCCCC(=O)*; γGlu = O=C(O)[C@H](CCC(=O)[*:2])N[*:1]; Hyp = O=C(O)[C@@H]1C[C@@H](O)CN1; AEEA = NCCOCCOCC(=O)O
# T1: human amylin receptor (AMY3) on CHO-K1/Ga15/AMY3 amylin receptor/CRE-luc cells (human, UniProt P30988 25-474; O60896 24-148)
# T1 sequence (looked up) 1: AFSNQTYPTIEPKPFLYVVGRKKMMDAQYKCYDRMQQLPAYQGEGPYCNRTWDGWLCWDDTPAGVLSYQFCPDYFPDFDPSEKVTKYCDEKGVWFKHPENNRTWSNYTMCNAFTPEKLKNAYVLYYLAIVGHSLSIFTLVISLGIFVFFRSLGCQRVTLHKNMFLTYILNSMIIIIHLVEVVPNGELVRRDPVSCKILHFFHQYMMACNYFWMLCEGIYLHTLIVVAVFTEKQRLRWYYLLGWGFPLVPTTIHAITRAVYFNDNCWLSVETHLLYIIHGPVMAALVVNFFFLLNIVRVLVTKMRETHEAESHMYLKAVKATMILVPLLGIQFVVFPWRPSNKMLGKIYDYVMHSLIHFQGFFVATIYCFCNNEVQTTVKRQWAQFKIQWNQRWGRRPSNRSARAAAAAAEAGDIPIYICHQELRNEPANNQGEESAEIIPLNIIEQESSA
# T1 sequence (looked up) 2: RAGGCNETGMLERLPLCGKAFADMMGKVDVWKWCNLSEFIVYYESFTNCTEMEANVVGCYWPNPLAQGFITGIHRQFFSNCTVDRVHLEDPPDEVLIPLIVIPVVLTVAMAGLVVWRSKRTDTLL
# Biological target: T1, human amylin receptor (AMY3) on …
# Assay: cell-based or functional assay
Binder,"EC50/nM, CRE-luciferase reporter in amylin receptor/CRE-luc CHO cells [nM]",Relative activity (the EC50 ratio of Cagrilintide to the compound) [%]
{C20 diacid-γGlu-AEEA-AEEA-AEEA-AEEA}-ASQLSTAATQRLADFLRHFTDRDRDILPPTNVGSNTP-NH2 (SMILES CC[C@H](C)[C@H](NC(=O)[C@H](CC(=O)O)NC(=O)[C@H](CCCNC(=N)N)NC(=O)[C@H](CC(=O)O)NC(=O)[C@H](CCCNC(=N)N)NC(=O)[C@H](CC(=O)O)NC(=O)[C@@H](NC(=O)[C@H](Cc1ccccc1)NC(=O)[C@H](Cc1c[nH]cn1)NC(=O)[C@H](CCCNC(=N)N)NC(=O)[C@H](CC(C)C)NC(=O)[C@H](Cc1ccccc1)NC(=O)[C@H](CC(=O)O)NC(=O)[C@H](C)NC(=O)[C@H](CC(C)C)NC(=O)[C@H](CCCNC(=N)N)NC(=O)[C@H](CCC(N)=O)NC(=O)[C@@H](NC(=O)[C@H](C)NC(=O)[C@H](C)NC(=O)[C@@H](NC(=O)[C@H](CO)NC(=O)[C@H](CC(C)C)NC(=O)[C@H](CCC(N)=O)NC(=O)[C@H](CO)NC(=O)[C@H](C)NC(=O)COCCOCCNC(=O)COCCOCCNC(=O)COCCOCCNC(=O)COCCOCCNC(=O)CC[C@H](NC(=O)CCCCCCCCCCCCCCCCCCC(=O)O)C(=O)O)[C@@H](C)O)[C@@H](C)O)[C@@H](C)O)C(=O)N[C@@H](CC(C)C)C(=O)N1CCC[C@H]1C(=O)N1CCC[C@H]1C(=O)N[C@H](C(=O)N[C@@H](CC(N)=O)C(=O)N[C@H](C(=O)NCC(=O)N[C@@H](CO)C(=O)N[C@@H](CC(N)=O)C(=O)N[C@H](C(=O)N1CCC[C@H]1C(N)=O)[C@@H](C)O)C(C)C)[C@@H](C)O) [polypeptide derivative M24],0.066,47
{C20 diacid-γGlu-AEEA-AEEA-AEEA-AEEA-AEEA-AEEA}-ASQLSTAATQRLADFLRHFTDRDRDILPPTNVGSNTP-NH2 (SMILES CC[C@H](C)[C@H](NC(=O)[C@H](CC(=O)O)NC(=O)[C@H](CCCNC(=N)N)NC(=O)[C@H](CC(=O)O)NC(=O)[C@H](CCCNC(=N)N)NC(=O)[C@H](CC(=O)O)NC(=O)[C@@H](NC(=O)[C@H](Cc1ccccc1)NC(=O)[C@H](Cc1c[nH]cn1)NC(=O)[C@H](CCCNC(=N)N)NC(=O)[C@H](CC(C)C)NC(=O)[C@H](Cc1ccccc1)NC(=O)[C@H](CC(=O)O)NC(=O)[C@H](C)NC(=O)[C@H](CC(C)C)NC(=O)[C@H](CCCNC(=N)N)NC(=O)[C@H](CCC(N)=O)NC(=O)[C@@H](NC(=O)[C@H](C)NC(=O)[C@H](C)NC(=O)[C@@H](NC(=O)[C@H](CO)NC(=O)[C@H](CC(C)C)NC(=O)[C@H](CCC(N)=O)NC(=O)[C@H](CO)NC(=O)[C@H](C)NC(=O)COCCOCCNC(=O)COCCOCCNC(=O)COCCOCCNC(=O)COCCOCCNC(=O)COCCOCCNC(=O)COCCOCCNC(=O)CC[C@H](NC(=O)CCCCCCCCCCCCCCCCCCC(=O)O)C(=O)O)[C@@H](C)O)[C@@H](C)O)[C@@H](C)O)C(=O)N[C@@H](CC(C)C)C(=O)N1CCC[C@H]1C(=O)N1CCC[C@H]1C(=O)N[C@H](C(=O)N[C@@H](CC(N)=O)C(=O)N[C@H](C(=O)NCC(=O)N[C@@H](CO)C(=O)N[C@@H](CC(N)=O)C(=O)N[C@H](C(=O)N1CCC[C@H]1C(N)=O)[C@@H](C)O)C(C)C)[C@@H](C)O) [polypeptide derivative M25],0.124,25
{C20 diacid-γGlu}-ASELSTAALGRLADFLRHFTDRDRDILPPTNVGSNTP-NH2 (SMILES CC[C@H](C)[C@H](NC(=O)[C@H](CC(=O)O)NC(=O)[C@H](CCCNC(=N)N)NC(=O)[C@H](CC(=O)O)NC(=O)[C@H](CCCNC(=N)N)NC(=O)[C@H](CC(=O)O)NC(=O)[C@@H](NC(=O)[C@H](Cc1ccccc1)NC(=O)[C@H](Cc1c[nH]cn1)NC(=O)[C@H](CCCNC(=N)N)NC(=O)[C@H](CC(C)C)NC(=O)[C@H](Cc1ccccc1)NC(=O)[C@H](CC(=O)O)NC(=O)[C@H](C)NC(=O)[C@H](CC(C)C)NC(=O)[C@H](CCCNC(=N)N)NC(=O)CNC(=O)[C@H](CC(C)C)NC(=O)[C@H](C)NC(=O)[C@H](C)NC(=O)[C@@H](NC(=O)[C@H](CO)NC(=O)[C@H](CC(C)C)NC(=O)[C@H](CCC(=O)O)NC(=O)[C@H](CO)NC(=O)[C@H](C)NC(=O)CC[C@H](NC(=O)CCCCCCCCCCCCCCCCCCC(=O)O)C(=O)O)[C@@H](C)O)[C@@H](C)O)C(=O)N[C@@H](CC(C)C)C(=O)N1CCC[C@H]1C(=O)N1CCC[C@H]1C(=O)N[C@H](C(=O)N[C@@H](CC(N)=O)C(=O)N[C@H](C(=O)NCC(=O)N[C@@H](CO)C(=O)N[C@@H](CC(N)=O)C(=O)N[C@H](C(=O)N1CCC[C@H]1C(N)=O)[C@@H](C)O)C(C)C)[C@@H](C)O) [polypeptide derivative M3],0.081,32
{C20 diacid-γGlu}-ASQLSTAVLGRLADFLRHFTDRDRDILPPTNVGSNTP-NH2 (SMILES CC[C@H](C)[C@H](NC(=O)[C@H](CC(=O)O)NC(=O)[C@H](CCCNC(=N)N)NC(=O)[C@H](CC(=O)O)NC(=O)[C@H](CCCNC(=N)N)NC(=O)[C@H](CC(=O)O)NC(=O)[C@@H](NC(=O)[C@H](Cc1ccccc1)NC(=O)[C@H](Cc1c[nH]cn1)NC(=O)[C@H](CCCNC(=N)N)NC(=O)[C@H](CC(C)C)NC(=O)[C@H](Cc1ccccc1)NC(=O)[C@H](CC(=O)O)NC(=O)[C@H](C)NC(=O)[C@H](CC(C)C)NC(=O)[C@H](CCCNC(=N)N)NC(=O)CNC(=O)[C@H](CC(C)C)NC(=O)[C@@H](NC(=O)[C@H](C)NC(=O)[C@@H](NC(=O)[C@H](CO)NC(=O)[C@H](CC(C)C)NC(=O)[C@H](CCC(N)=O)NC(=O)[C@H](CO)NC(=O)[C@H](C)NC(=O)CC[C@H](NC(=O)CCCCCCCCCCCCCCCCCCC(=O)O)C(=O)O)[C@@H](C)O)C(C)C)[C@@H](C)O)C(=O)N[C@@H](CC(C)C)C(=O)N1CCC[C@H]1C(=O)N1CCC[C@H]1C(=O)N[C@H](C(=O)N[C@@H](CC(N)=O)C(=O)N[C@H](C(=O)NCC(=O)N[C@@H](CO)C(=O)N[C@@H](CC(N)=O)C(=O)N[C@H](C(=O)N1CCC[C@H]1C(N)=O)[C@@H](C)O)C(C)C)[C@@H](C)O) [polypeptide derivative M4],0.081,32
{C20 diacid-γGlu}-ASQLSTAATQRLADFLRHSSQQLKPILPPTNVGSNT[Hyp]-NH2 (SMILES CC[C@H](C)[C@H](NC(=O)[C@@H]1CCCN1C(=O)[C@H](CCCCN)NC(=O)[C@H](CC(C)C)NC(=O)[C@H](CCC(N)=O)NC(=O)[C@H](CCC(N)=O)NC(=O)[C@H](CO)NC(=O)[C@H](CO)NC(=O)[C@H](Cc1c[nH]cn1)NC(=O)[C@H](CCCNC(=N)N)NC(=O)[C@H](CC(C)C)NC(=O)[C@H](Cc1ccccc1)NC(=O)[C@H](CC(=O)O)NC(=O)[C@H](C)NC(=O)[C@H](CC(C)C)NC(=O)[C@H](CCCNC(=N)N)NC(=O)[C@H](CCC(N)=O)NC(=O)[C@@H](NC(=O)[C@H](C)NC(=O)[C@H](C)NC(=O)[C@@H](NC(=O)[C@H](CO)NC(=O)[C@H](CC(C)C)NC(=O)[C@H](CCC(N)=O)NC(=O)[C@H](CO)NC(=O)[C@H](C)NC(=O)CC[C@H](NC(=O)CCCCCCCCCCCCCCCCCCC(=O)O)C(=O)O)[C@@H](C)O)[C@@H](C)O)C(=O)N[C@@H](CC(C)C)C(=O)N1CCC[C@H]1C(=O)N1CCC[C@H]1C(=O)N[C@H](C(=O)N[C@@H](CC(N)=O)C(=O)N[C@H](C(=O)NCC(=O)N[C@@H](CO)C(=O)N[C@@H](CC(N)=O)C(=O)N[C@H](C(=O)N1C[C@H](O)C[C@H]1C(N)=O)[C@@H](C)O)C(C)C)[C@@H](C)O) [polypeptide derivative M41],0.08,113
{C20 diacid-γGlu}-ASQLSTAATQRLADFLRHSSEELKPILPPTNVGSNT[Hyp]-NH2 (SMILES CC[C@H](C)[C@H](NC(=O)[C@@H]1CCCN1C(=O)[C@H](CCCCN)NC(=O)[C@H](CC(C)C)NC(=O)[C@H](CCC(=O)O)NC(=O)[C@H](CCC(=O)O)NC(=O)[C@H](CO)NC(=O)[C@H](CO)NC(=O)[C@H](Cc1c[nH]cn1)NC(=O)[C@H](CCCNC(=N)N)NC(=O)[C@H](CC(C)C)NC(=O)[C@H](Cc1ccccc1)NC(=O)[C@H](CC(=O)O)NC(=O)[C@H](C)NC(=O)[C@H](CC(C)C)NC(=O)[C@H](CCCNC(=N)N)NC(=O)[C@H](CCC(N)=O)NC(=O)[C@@H](NC(=O)[C@H](C)NC(=O)[C@H](C)NC(=O)[C@@H](NC(=O)[C@H](CO)NC(=O)[C@H](CC(C)C)NC(=O)[C@H](CCC(N)=O)NC(=O)[C@H](CO)NC(=O)[C@H](C)NC(=O)CC[C@H](NC(=O)CCCCCCCCCCCCCCCCCCC(=O)O)C(=O)O)[C@@H](C)O)[C@@H](C)O)C(=O)N[C@@H](CC(C)C)C(=O)N1CCC[C@H]1C(=O)N1CCC[C@H]1C(=O)N[C@H](C(=O)N[C@@H](CC(N)=O)C(=O)N[C@H](C(=O)NCC(=O)N[C@@H](CO)C(=O)N[C@@H](CC(N)=O)C(=O)N[C@H](C(=O)N1C[C@H](O)C[C@H]1C(N)=O)[C@@H](C)O)C(C)C)[C@@H](C)O) [polypeptide derivative M42],0.28,32
